The test system of this series is MS2 coat protein. The series is described as follows: apparent KD of MS2 coat protein; higher = weaker reporter binding. The conditions noted are these: Eterna round: R107. Put shortly: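 With or without constant ligand, designed RNA switches in 100 mM Tris-HCl pH 7.5, 80 mM KCl and 4 mM MgCl2 were titrated with SNAP-549-labelled MS2 coat protein. Concentrations went up in twofold steps from 0.7 or 1.5 nM to 3 µM. The switches had been transcribed on-chip from Illumina sequencing clusters, and apparent KD is the per-design median of normalised cluster binding-curve fits.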

The mark [1] stands for this setting: input ligand: theophylline 20 uM.
The mark [2] stands for this setting: input ligand: theophylline 2 mM.
[3] abbreviates: input ligand: tryptophan 2.4 mM.

“UAUCUACAUAUAUAGGUUAUUCGAUUAUUUCGAGGACCGGUACGGCCGCCACUCGUUAACAUAUACAUGAGGAUCACCCAUGUUA [JR_Nu_SSTryptoA_Sub023]”: the “apparent KD of MS2 coat protein” value was 15.6 nM (input ligand: arginine 13.2 mM), 19 nM under setting [1] and 17.5 nM under setting [2].

On to “UAUGCACAUGAGGAUCACCCAUGUAUGGAAGGAGCGGUGAAUGAACCAGGUAGGUCGCCAUGGUGAGGAUCAUCUAUGUAUUCGU [Exclusion - Arginine A (Freestyle 8)]”, for which the “apparent KD of MS2 coat protein” value came to 49.1 nM (input ligand: arginine 13.2 mM); 81 nM (input ligand: none); 101 nM under setting [1]; 117 nM under setting [2]; 71.7 nM under setting [3].

In the case of “UAUGUGAUAGUCGUACUCUCACACUGAGAAGGAGCGCGAUAGUUCGCAGGUAGGUCGCUCAGUUAUACAUGAGGAUCACCCAUGU [Isrice]”, the “apparent KD of MS2 coat protein” value (input ligand: arginine 13.2 mM) came out at 25.3 nM; the “apparent KD of MS2 coat protein” value (input ligand: none) is 32.6 nM; the “apparent KD of MS2 coat protein” value under setting [1] is 32.9 nM; the “apparent KD of MS2 coat protein” value under setting [2] was 32.4 nM; the “apparent KD of MS2 coat protein” value under setting [3] is 26.4 nM.

Regarding “UAUUUGGUGCGCGAGCGUUGGAUAAUUGAUACCAGUGAAGAAGAGCGCCCUUGGCAGCGAAUCCUAACAUGAGGAUCACCCAUGU [5.S]”, the “apparent KD of MS2 coat protein” value is 38.2 nM (input ligand: arginine 13.2 mM), 63.2 nM under setting [1] and 41.4 nM under setting [3].

With “UCACAUGAGGAUCACCCAUGUGUCAGAGAAGGAGCGGCCGCAAGGCCAGGUAGGUCGCUCAGGUAGCGUGAGGAUCACCCGUGUG [#1 Exclusion - Arginine A Attempt #10 (Inspired by cyborg)]”, the “apparent KD of MS2 coat protein” value was 23.6 nM (input ligand: arginine 13.2 mM); 118 nM (input ligand: none); 213 nM under setting [1]; 141 nM under setting [2]; 117 nM under setting [3].

In the case of “UCACAUGAGGAUCACCCAUGUGUCAGAGAAGGAGCGGCCGCAAGGCCAGGUAGGUCGCUCGGGUAGCGUGAGGAUCACCCGUGUG [#1 Exclusion - Arginine A Attempt #11 (Inspired by cyborg)]”, the “apparent KD of MS2 coat protein” value (input ligand: arginine 13.2 mM) is 31.8 nM; the “apparent KD of MS2 coat protein” value (input ligand: none) was 65.8 nM; the “apparent KD of MS2 coat protein” value under setting [1] was determined as 175 nM; the “apparent KD of MS2 coat protein” value under setting [2] was found to be 77.5 nM; the “apparent KD of MS2 coat protein” value under setting [3] came out at 45.1 nM.

Regarding “UCACUCUGGGUGAAUUCCGGAGAUGUGGAAGGAGCGGACGAAAGUCCAGGUAGGUCGCCAUCGGACAUGAGGAUCACCCAUGUAC [Same State - Arginine A (Freestyle 23)]”, the “apparent KD of MS2 coat protein” value is, setting by setting: (input ligand: arginine 13.2 mM) 71.8 nM; (input ligand: none) 89 nM; under setting [1], 98 nM; under setting [2], 131 nM; under setting [3], 68.5 nM.

Take “UCAUGAGUUUCGGAUACCAGUGAUGUCGAUACAUGAGGAUCACCCAUGUUAGAGGAUGUACACCCUUGGCAGCCGGGUGUGGCGG [ooimullin]”: the “apparent KD of MS2 coat protein” value reads like this: (input ligand: arginine 13.2 mM) 33.7 nM; (input ligand: none) 143 nM; under setting [1], 102 nM; under setting [2], 102 nM; under setting [3], 113 nM.

For the sequence “UCCGCGGAGACGGCCGCCACUGAGUGAGAAGUCGUGCUCUAACUACAUGAGGAUCACCCAUGUCCCAGGACCGGGUCGAAGUGUU [theeternabot_sameState_MS2_Trp_B_36]”, the “apparent KD of MS2 coat protein” value stood at 97.4 nM (input ligand: arginine 13.2 mM), 235 nM under setting [1] and 208 nM under setting [2].

With “UCCGGACGUUCGGCCGCCACUAAUUUACAUGAGGAUCACCCAUGUGCCAGUGGUCCGCAGAGUAAUAGGACCGGGAACCUUGGCU [theeternabot_exclusion_MS2_Trp_B_10]”, the “apparent KD of MS2 coat protein” value (input ligand: arginine 13.2 mM) came to 24.4 nM, the “apparent KD of MS2 coat protein” value under setting [1] was 30.8 nM and the “apparent KD of MS2 coat protein” value under setting [2] was determined as 26.3 nM.

As to “UCCUACACGGAGACGUGUAGGAGUAAUGAUACCAGCAUGGAGACAUGCCCUUGGCAGCGUUACAUGAGGAUCACCCAUGUGGUGC [ETHA #7]”, the “apparent KD of MS2 coat protein” value (input ligand: arginine 13.2 mM) amounted to 14.7 nM; the “apparent KD of MS2 coat protein” value (input ligand: none) was determined as 16.3 nM; the “apparent KD of MS2 coat protein” value under setting [1] was 26.2 nM; the “apparent KD of MS2 coat protein” value under setting [2] is 270 nM; the “apparent KD of MS2 coat protein” value under setting [3] worked out at 17.7 nM.

Take “UCCUGCAGAGCGGCCGCCACUGUAUUGCGUGAGGAUGACCCAACAUGAGGAUCACCCAUGUUGUUUAGGACCGGGCUUGCCACCA [lkpmullin]”: the “apparent KD of MS2 coat protein” value was found to be 16.7 nM (input ligand: arginine 13.2 mM); 14.2 nM (input ligand: none); 18.5 nM under setting [1]; 18.1 nM under setting [2]; 18.2 nM under setting [3].

On to “UCGCCCAGGUAGGAUUGAUGGGAUAUGGAAGGAGCGCUGAUGCCAGCAGGUAGGUCGCCAACGGACAUGAGGAUCACCCAUGUAC [Same State - Arginine A (Freestyle 5)]”, for which the “apparent KD of MS2 coat protein” value (input ligand: arginine 13.2 mM) came to 16.5 nM; the “apparent KD of MS2 coat protein” value (input ligand: none) was 18.7 nM; the “apparent KD of MS2 coat protein” value under setting [1] was 34.6 nM; the “apparent KD of MS2 coat protein” value under setting [2] was 28.3 nM; the “apparent KD of MS2 coat protein” value under setting [3] amounted to 25.2 nM.

As for “UCGCGAUAGAGAAGGAGCGUCAACACCACUUAACAUGAGGAUCACCCAUGUGUUACUUUAAGACAGGUAGGUCGCUCUAGCGCUU [JR_Nu_ExcArginiB_Sub027]”, the “apparent KD of MS2 coat protein” value reads like this: (input ligand: arginine 13.2 mM) 12.7 nM; (input ligand: none) 12.4 nM; under setting [1], 16.5 nM; under setting [2], 14.2 nM; under setting [3], 11.5 nM.

As to “UCGCUCGCAGAAAUGCGAGCGAGUUGCGAUACCAGCCCGGAAACGGGCCCUUGGCAGCGCACAUGAGGAUCACCCAUGUCAUGUU [Exclusion - Theophylline A Attempt #2 (HarryS)]”, the “apparent KD of MS2 coat protein” value (input ligand: arginine 13.2 mM) came to 17.3 nM, the “apparent KD of MS2 coat protein” value under setting [1] turned out to be 24.7 nM and the “apparent KD of MS2 coat protein” value under setting [3] came to 18.1 nM.

“UCGCUCUGGGUGAAUCCCGGAGAUGUGGAAGGAGCGGACGAAAGUCCAGGUAGGUCGCCAUCGAACAUGAGGAUCACCCAUGUAC [Same State - Arginine A (Freestyle 25)]”: the “apparent KD of MS2 coat protein” value came to 13.3 nM (input ligand: arginine 13.2 mM); 88.8 nM (input ligand: none); 338 nM under setting [1]; 60.5 nM under setting [2]; 21.8 nM under setting [3].

For “UCGGGCAGAGCGGCCGCCACUGUUUGGCAUGCGGAUGAAGGAACAUGAGGAUCACCCAUGUAGAUUAGGACCGGGCUUUCGGAGA [cctchmullin]”, the “apparent KD of MS2 coat protein” value reads like this: (input ligand: arginine 13.2 mM) 19.3 nM; (input ligand: none) 21.4 nM; under setting [1], 32.8 nM; under setting [2], 25.5 nM; under setting [3], 22.2 nM.

On to “UCGUGUAAAACGGAUACCAGUGAGAAGGAUACAUGAGGAUCACCCAUGUGAGUUGAUCCACACCCUUGGCAGCUGUAUAUAUCUA [ozomullin]”, for which the “apparent KD of MS2 coat protein” value (input ligand: arginine 13.2 mM) is 105 nM, the “apparent KD of MS2 coat protein” value under setting [1] turned out to be 185 nM and the “apparent KD of MS2 coat protein” value under setting [3] stood at 122 nM.

Take “UCGUUUUAGUCGGCCGCCACUGAACUCAUGUUCAACAUGAGGAUCACCCAUGUACCUUAUUUUAACAGGACCGGGACGUAAUAGA [JR_ExcTryptoB_Sub001]”: the “apparent KD of MS2 coat protein” value came to 165 nM (input ligand: arginine 13.2 mM), 264 nM under setting [1] and 258 nM under setting [2].

“UCUCACAUGAGGAUCACCCAUGUUAAGGCCCGAGGACCGGUACGGCCGCCACUCGUUGGAAGCCGGUAACGUACGAAUCUUCCGU [theeternabot_sameState_MS2_Trp_A_18]”: the “apparent KD of MS2 coat protein” value (input ligand: arginine 13.2 mM) stood at 16.2 nM, the “apparent KD of MS2 coat protein” value under setting [1] was determined as 26.9 nM and the “apparent KD of MS2 coat protein” value under setting [2] amounted to 22.9 nM.

For the sequence “UCUUUCUAUAGUGAUACCAGACGUACAUGAGGAUCACCCAUGUUACAUUCUUGGUUAAAAGUCCCUUGGCAGCACGAUUUGUUCG [JR_Nu_ExcTheophyB_Sub027]”, the “apparent KD of MS2 coat protein” value reads like this: (input ligand: arginine 13.2 mM) 9.7 nM; under setting [1], 10.9 nM; under setting [3], 10.3 nM.

On to “UCUUUCUAUGUAGAUACCAGCAUGUUAUAUUUCUAAUGACAUGAGGAUCACCCAUGUAAAUGCCCUUGGCAGCUGCGUUUUCUUU [SSTHB #5]”, for which the “apparent KD of MS2 coat protein” value was 14.2 nM (input ligand: arginine 13.2 mM), 20.2 nM under setting [1] and 15.2 nM under setting [3].

Turning to “UGACAUUGCUCAGAUACCAGACAUGAGCAUCAGCCAUGUGCCAACAAGUACAUAAUAAAAGUCCCUUGGCAGCUGAGCAAUGUCU [TheoBX 20 #MS2Left #AlternativeMS2 #Theo2]”, the “apparent KD of MS2 coat protein” value worked out at 13.2 nM (input ligand: arginine 13.2 mM); 11.3 nM (input ligand: none); 16.2 nM under setting [1]; 68.4 nM under setting [2]; 11.3 nM under setting [3].

Consider “UGACAUUGCUCAGAUACCAGACAUGAGGAUCACCCAUGUACCAAGGUAACCGAAAGGCAUGUCCCUUGGCAGCUGAGCAAUGUCU [TheoBX 2 #MS2Left #Theo2 #StaticStem]”, for which the “apparent KD of MS2 coat protein” value by setting is: (input ligand: arginine 13.2 mM) 13 nM; under setting [1], 18.9 nM; under setting [3], 11.9 nM.

Consider “UGACAUUGCUCAGAUACCAGACAUGAGGAUCACCCAUGUACCAAGGUAAGAAAAUAACAUGUCCCUUGGCAGCUGAGCAAUGUCU [First try #MS2Left #Theo2]”, for which the “apparent KD of MS2 coat protein” value (input ligand: arginine 13.2 mM) stood at 16.4 nM, the “apparent KD of MS2 coat protein” value under setting [1] is 38.4 nM and the “apparent KD of MS2 coat protein” value under setting [3] is 14.6 nM.

For “UGACAUUGCUCAGAUACCAGACUUGAGGAACACCCAAGUGCCAACAAGUAUAUAAUAAAAGUCCCUUGGCAGCUGAGCAAUGUCU [TheoBX 19 #MS2Left #AlternativeMS2 #Theo2]”, the “apparent KD of MS2 coat protein” value came to 42.8 nM (input ligand: arginine 13.2 mM); 47.8 nM (input ligand: none); 105 nM under setting [1]; 318 nM under setting [2]; 45.3 nM under setting [3].

The record behind these values is the supplement of paper PMC9170038.
